Data published in PMC12746075, “Twinfilin modulates tissue contractility through uncapping of capping protein in C. elegans” (Development (Cambridge, England), 2025).

Target: T1, biotinylated SNAP-tagged C. elegans heterodimeric capping protein (CAP-1 and CAP-2) (C. elegans, UniProt P34685 1-282; P34686 1-270, biotin (benzylguanine-biotin on the SNAP tag; subunit that carries the tag not stated) | biotin (benzylguanine-biotin on the SNAP tag; subunit that carries the tag not stated))
T1 construct: CAP-1, capping protein subunit of C. elegans; CAP-2, capping protein subunit of C. elegans; only one SNAP tag is meant for the heterodimer; also called CP; SNAP-CP; source: E. coli BL21 DE3, purified (HisTrap, size-exclusion chromatography Superose 6), labeled with benzylguanine-biotin; not shown: His tag (from the HisTrap chromatography)
T1 sequence (looked up) 1: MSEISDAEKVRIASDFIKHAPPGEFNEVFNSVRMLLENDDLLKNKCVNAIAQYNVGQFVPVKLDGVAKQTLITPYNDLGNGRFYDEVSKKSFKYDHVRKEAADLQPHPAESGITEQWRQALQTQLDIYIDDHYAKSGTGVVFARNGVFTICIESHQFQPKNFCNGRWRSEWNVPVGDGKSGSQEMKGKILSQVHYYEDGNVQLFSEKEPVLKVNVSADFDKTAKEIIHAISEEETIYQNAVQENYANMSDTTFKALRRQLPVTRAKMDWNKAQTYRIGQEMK
T1 sequence (looked up) 2: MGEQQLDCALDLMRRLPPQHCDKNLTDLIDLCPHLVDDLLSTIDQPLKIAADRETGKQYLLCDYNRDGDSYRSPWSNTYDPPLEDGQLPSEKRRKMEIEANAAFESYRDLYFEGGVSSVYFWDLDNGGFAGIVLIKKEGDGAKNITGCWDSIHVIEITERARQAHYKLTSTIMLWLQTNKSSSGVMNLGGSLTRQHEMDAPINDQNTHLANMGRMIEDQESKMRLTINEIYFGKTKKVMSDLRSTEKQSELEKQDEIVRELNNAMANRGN
Experiment: microfluidics-assisted TIRF microscopy (filament capture and uncapping); biotinylated SNAP-CP anchored to the coverslip surface, preformed Alexa-488-labeled ADP-actin filaments captured; filament detachment monitored in TIRF buffer (10 mM imidazole pH 7.4, 50 mM KCl, 1 mM MgCl2, 1 mM EGTA, 0.2 mM ATP, 10 mM DTT) with and without TWF-2; single-exponential fit
Conditions: both partners purified

B1: C. elegans TWF-2 (6×His-tagged), recombinant (natural protein, UniProt Q20173 1-333, looked up)
chain: MACQTGIRANAALRNALNLGKQAKLRLIKIVVNNEEMTPNYEFAGTANWRDDWRACLPDCVDAYEPCFILFRLNTITEWVLITFVDDRAPVREKMLLAATCATFKSEFGQCYIEHEKHVTDLKDLTLNAFEAWLKAKTELGPMSEVERELHNAQQERAAIAHAGPQHMKGVAFPVDRNAEEALRQLASQKLSFVQLSVDTLNEAIKLEGTLESLEPSQLASKVPRDKPRYTFYNFDHTWEGVPQQCTLFIYSLPSSGSSIKERMLYSSCKGPFLSAAQNQYGVVITNKMEVDARDDLSEKALLEVIHPLPVEAPKQFSRPAPPRAGPRRITKV
notes: TWF-2, the sole twinfilin of C. elegans, recombinant; also called twinfilin; source: E. coli BL21 (pRare), purified (Ni-NTA, size-exclusion chromatography Superdex 75 Increase)
  fold acceleration of uncapping of CP from barbed ends (against buffer): > 90 fold
